As a reminder, the Kd is the equilibrium constant for the complex coming apart. Low values mean higher affinity, high ones lower affinity. Broadly, the koff is the rate constant with which the complex falls apart. The low end stands for slow dissociation, the high end for fast dissociation. One may read the kon as the rate constant with which the complex forms. Low values mean slower complex formation, high ones faster complex formation.

Holding throughout (assay): BLI, sACE22-IgG1 immobilized, RBD-8h analyte
Assay [1] deals with 8his-tagged RBD of the S protein of bat coronavirus isolate RsSHC014 (bat coronavirus RsSHC014).
The target in assay [2] is 8his-tagged RBD of the S protein of bat coronavirus isolate LYRa11 (bat coronavirus LYRa11).
The target in assay [3] is 8his-tagged RBD of the S protein of bat coronavirus isolate Rs7327 (bat coronavirus Rs7327).
Assay [4] concerns the target 8his-tagged RBD of the S protein of bat coronavirus isolate Rs4231 (bat coronavirus Rs4231).
Assay [5] deals with 8his-tagged RBD of the S protein of bat coronavirus isolate Rs4084 (bat coronavirus Rs4084).

As to “sACE22.v2.4 fused to human IgG1 Fc (Fc fusion)”, the Kd in assay [1] is 1.3 nM; in assay [2], 1.8 nM; in assay [3], 1.9 nM; in assay [4] it was 3.5 nM; in assay [5], 3.1 nM. Besides, the off-rate constant (koff) in assay [1] turned out to be 0.002 s⁻¹; in assay [2], 0.0025 s⁻¹; in assay [3], 0.0018 s⁻¹; in assay [4] it was 0.0016 s⁻¹; in assay [5], 0.0015 s⁻¹. The on-rate constant (kon) stood at 1.6e+06 M⁻¹ s⁻¹ in assay [1]; 1.4e+06 M⁻¹ s⁻¹ in assay [2]; 980000 M⁻¹ s⁻¹ in assay [3]; 450000 M⁻¹ s⁻¹ in assay [4]; 480000 M⁻¹ s⁻¹ in assay [5].
